From US6207816, “High affinity oligonucleotide ligands to growth factors” (NeXstar Pharmaceuticals, Inc.)

Experiments:
[1] = biological target: T1, TGF-beta1 (Homo sapiens, UniProt P01137 P01137:279-390); assay: filter; n=3; KRH buffer 37 C; IC50 25 ± 14 nM in PAI-luciferase assay; settings: tags: Genentech or R&D Systems; chain copies: 2
[2] = biological target: T2, PDGF-BB (Homo sapiens, UniProt P01127 P01127:82-190); assay: competition; 125I-PDGF-BB binding to PDGF alpha-receptor on PAE cells; settings: tags: R&D Systems; chain copies: 2; three-way junction
[3] = biological target: T2, PDGF-BB; assay: filter; 37 C, PBSM + 0.01% HSA; high affinity component; settings: tags: R&D Systems, E. coli; chain copies: 2; label: 5'-32P; three-way helix junction
Method: (§1) D. Determination of the Apparent Equilibrium Dissociation Constants and the Dissociation Rate Constants The binding of ssDNA ligands at low concentrations to varying concentrations of PDGF was determined by the nitrocellulose filter binding method as described (Green et al., (1995) *Chemistry and Biology* 2: 683–695). The concentrations of PDGF stock solutions (in PBS) were determined from the absorbance readings at […] using the following $e280$ values calculated from the amino acid sequences (Gill, S. C., and von Hippel, P. H. (1989) *Anal. Biochem.* 182: 319–326): 19,500 M^-1cm^-1 for PDGF-AA, 15,700 M^-1cm^-1 for PDGF-AB and 11,800 M^-1cm^-1 for PDGF-BB. ssDNA for all binding experiments were purified by electrophoresis on 8% (>80 nucleotides) or 12% (<40 nucleotides) polyacrylamide/7 M urea gels. All ssDNA ligands were heated at 90° C. in binding buffer at high dilution ($\approx$1 nM) for 2 min and cooled on ice prior to frier dilution into the protein solution. The binding mixtures were typically incubated for 15 min at 37° C. before partitioning on nitrocellulose filters.
(§2) The fraction of ^32P 5' end-labeled DNA ligands bound to varying concentrations of PDGF was determined by the nitrocellulose filter binding method. Minimal ligands tested were 20t (○), 36t (Δ), and 41t (□). […]

[4] = biological target: T3, PDGF-AB (Homo sapiens, UniProt P04085;P01127 P04085:87-211,P01127:82-190); assay: as above; settings: tags: R&D Systems, E. coli; label: 5'-32P; three-way helix junction
Method: as §1, §2

[5] = biological target: PDGF-AA (Homo sapiens, UniProt P04085 P04085:87-211); assay: filter; 37 C; comparable to random DNA; settings: tags: R&D Systems, E. coli, long form A-chain; chain copies: 2; label: 5'-32P; three-way helix junction
Method: as §1, §2

[6] = biological target: T3, PDGF-AB; assay: filter; thrombin aptamer control; settings: tags: R&D Systems, E. coli; predicted stem-loop
[7] = biological target: T2, PDGF-BB; assay: competition; no effect on receptor binding or mitogenesis; settings: tags: R&D Systems; chain copies: 2; stem-loop
Method: After incubation for 24 h at 37° C., ^3H-radioactivity incorporated into DNA was determined using a β-counter.

[8] = biological target: T4, KGF (hKGF) (Homo sapiens, UniProt P21781 P21781:32-194); assay: filter; DPBS 37 C; settings: tags: Upstate Biotechnology
T4 sequence: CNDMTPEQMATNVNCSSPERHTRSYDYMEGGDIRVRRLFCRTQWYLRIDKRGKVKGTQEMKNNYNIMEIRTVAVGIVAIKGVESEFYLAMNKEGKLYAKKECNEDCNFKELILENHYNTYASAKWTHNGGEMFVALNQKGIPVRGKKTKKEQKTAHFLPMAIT

[9] = biological target: T3, PDGF-AB; assay: filter; 20t binds within factor 2 of full length; settings: tags: R&D Systems
Method: as §1

[10] = biological target: T3, PDGF-AB; assay: filter; 41t binds within factor 2 of full length; settings: tags: R&D Systems
Method: as §1

[11] = biological target: T1, TGF-beta1; assay: filter; boundary experiment; settings: tags: Genentech; chain copies: 2
[12] = biological target: T4, KGF (hKGF); assay: competition; PC-3 assay; settings: tags: Upstate Biotechnology
Method: PC-3 cells were plated in 24-well plates at about 10^5 cells per well. Following growth for […], the cells were serum starved for 24 hours, washed two times with 500 µl of cold DPBS, and then incubated with 500 µl binding buffer (BB1; DPBS, 0.5 mM MgCl_2, 0.2% BSA. 0.02% sodium azide) containing various concentrations of ^125I-labeled KGF ranging from 0 to 0.8 nM. Following 3–3.5 hour incubation at 4° C., the binding mixes were aspirated and the well-adhered cells were washed two times with 1 ml BB1 and once with 1 ml BB1 supplemented with 0.5M NaCl. The remaining bound labeled hKGF was solubilized in 600 µl 0.5% SDS/0.1M NaOH and counted in a gamma counter (Beckmann). Nonspecific binding was determined in the presence of 100 fold molar excess of unlabeled hKGF. For competition assays, the labeled hKGF was kept constant at 0.3 nM, and varying concentrations of competitor molecules were included in the binding reactions ranging from 0–1,000 nM. Binding curves were fitted to the equation: […]
A subset of these ligands was tested on the NIH3T3/FGFR-2. In determining the Ki values, it was assumed that 3T3 cells have 500,000 binding sites per cell and PC-3 cells have 5,000 binding sites per cell.

[13] = biological target: T1, TGF-beta1; assay: cell_activity; second value 103 nM; settings: tags: Genentech; chain copies: 2
Method: (§3) Mink lung epithelial cells (MLEC) carrying the Pai1/luc construct were maintained in DME containing 10% fetal bovine serum and 400 μg/ml G418. MLEC-Pai1/luc cells were plated at 3.2×10^4 cells per well in a 96 well Falcon plate, in 100 μl of DME+10% fetal bovine serum overnight. Media was made from autoclaved water. The cells were washed three times (100 μl) in serum free DME plus Solution A (1:1). Solution A is 30 mM Hepes pH 7.6, 10 mM glucose, 3.0 mM KCl, 131 mM NaCl, 1.0 mM disodium phosphate. Samples (100 μl) were added in DME containing 20 mM Hepes pH 7.5, and 0.1% BSA (Fluka, radioimmunoassay grade). All samples were in triplicate. After six hours at 37° C. in a 5% CO_2 incubator the media was removed and cells were washed three times (100 μl each) in cold PBS. Lysis buffer (75 μl) (Analytical Luminescence Laboratory) was added and the plates incubated on ice for 20 min. The plates were sealed and frozen at −80° C. until assayed. Samples (25 μl) were assayed for luciferase activity with the Enhanced Luciferase Assay Kit from Analytical Luminescence Laboratory (San Diego, Calif., USA) according to the manufacturers instructions using the Berthold Microlumat LB96P luminometer.
(§4) Ligands tested for inhibition of TGFβ1 activity were tested at a minimum of five concentrations. […]

[14] = biological target: T1, TGF-beta1; assay: cell_activity; second value 298 nM; settings: tags: Genentech; chain copies: 2
Method: as §3, §4

T2 sequence (P01127 82-190, one chain of several): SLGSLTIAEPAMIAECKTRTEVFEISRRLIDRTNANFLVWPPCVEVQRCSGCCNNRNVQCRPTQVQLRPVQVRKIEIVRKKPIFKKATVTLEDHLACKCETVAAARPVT
T3 sequence (P01127 82-190, chain 2 of 2, other chains not shown): as the sequence (P01127 82-190, one chain of several) above
T1 sequence (P01137 279-390, one chain of several): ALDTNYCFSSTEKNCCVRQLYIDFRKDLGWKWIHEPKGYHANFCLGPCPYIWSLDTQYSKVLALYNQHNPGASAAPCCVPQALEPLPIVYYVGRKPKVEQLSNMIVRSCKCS

B1: lib3-13 (ssRNA)
RNA: GGGGGAGAACGCGGAUCCGAGCAAUCCCAGGCGCAUAGCUUCCGAGUAGACAGGAGGGAGGGGUGGAUGUGGCGUCUACUCGGUGUCGUGAAGCUUCGCUCUAGAUCUCCCUUUAGUGAGGGUUA
modifications: 2'-NH2 pyrimidines
Kd [1]: 0.83 nM

B2: 20t (ssDNA)
DNA: TGGGAGGGCGCGTTCTTCGTGGTTACTTTTAGTCCCG
modifications: 3'-3' inverted T
IC50 [2]: ~1 nM | Kd [3]: 0.127 nM | Kd [4]: 0.147 nM | Kd [5]: 47 nM

B3: T39 (ssDNA)
DNA: CAGTCCGTGGTAGGGCAGGTTGGGGTGACTTCGTGGAA
modifications: 3'-3' inverted T
Kd [6]: 230 nM | binding result [7]: no binding

B4: 4N (ssRNA)
RNA: GGGAGGACGAUGCGGGUGGUGAAGAGGUACCGGAAUUGCUAAAGAUACCACGGCCCAGACGACUCGCCCGA
modifications: 2'-NH2 pyrimidines
Kd [8]: 0.75 nM

B5: 47N (ssRNA)
RNA: GGGAGGACGAUGCGGGAAGGGUAGGAAGGUCAAGAGGAAACAGCGCUUCGGGGGUGCAGACGACUCGCCCGA
modifications: 2'-NH2 pyrimidines
Kd [8]: 1.76 nM

B6: 10F (ssRNA)
RNA: GGGAGGACGAUGCGGGACCAGAUGGCGGAUUUUUCAGCAAUCCUCCCCCCGCUGCCCAGACGACUCGCCCGA
modifications: 2'-F pyrimidines
Kd [8]: 0.47 nM

B7: ligand 20 full length (ssDNA)
DNA: ATCCGCCTGATTAGCGATACTATGGGAGGGCGCGTTCTTCGTGGTTACTTTTAGTCCCGACTTGAGCAAAATCACCTGCAGGGG
binding result [9]: binds

B8: ligand 41 full length (ssDNA)
DNA: ATCCGCCTGATTAGCGATACTCAGGGCACTGCAAGCAATTGTGGTCCCAATGGGCTGAGTACTTGAGCAAAATCACCTGCAGGGG
binding result [10]: binds

B9: lib3-13-79 (ssRNA)
RNA: GGGGGAGAACGCGGAUCCGAGCAAUCCCAGGCGCAUAGCUUCCGAGUAGACAGGAGGGAGGGGUGGAUGUGGCGUCUAC
binding result [11]: binds

B10: lib3-13-(38-123) (ssRNA)
RNA: GCUUCCGAGUAGACAGGAGGGAGGGGUGGAUGUGGCGUCUACUCGGUGUCGUGAAGCUUCGCUCUAGAUCUCCCUUUAGUGAGGGU
binding result [11]: binds

B11: 10F (K10F) (ssRNA)
RNA: GGGAGGACGAUGCGGGACCAGAUGGCGGAUUUUUCAGCAAUCCUCCCCCCGCUGCCCAGACGACUCGCCCGA
modifications: 2'-F pyrimidines
IC50 [12]: 30 nM

B12: 4N (K4N) (ssRNA)
RNA: GGGAGGACGAUGCGGGUGGUGAAGAGGUACCGGAAUUGCUAAAGAUACCACGGCCCAGACGACUCGCCCGA
modifications: 2'-NH2 pyrimidines
IC50 [12]: 70 nM

B13: lib2-6-1 (ssRNA)
RNA: GGGGGAGAACGCGGAUCCUGUCUCCACCGCCGAUACUGGGGUUCCUGGGGCCCCUCCAUGCAGGAGGGGGGUGGUUCGGAGAAAGCUUCGCUCUAGAUCUCCCUUUAGUGAGGGUUA
modifications: 2'-NH2 U, 2'-F C
IC50 [13]: 112 nM

B14: lib2-6-1-81 (ssRNA)
RNA: GGGGGAGAACGCGGAUCCUGUCUCCACCGCCGAUACUGGGGUUCCUGGGGCCCCUCCAUGCAGGAGGGGGGUGGUUCGGAG
modifications: 2'-NH2 U, 2'-F C
IC50 [14]: 201 nM
